# Experimental data: the RNAGym collection of RNA variant scans (doi:10.1073/pnas.2313332121)
# B1: TPR t1 (parent)
# chain: GACCAAUCUGCCCUCAGAGCUCGAGAACAUCUUCGGAUGCAGAGGAGGCAGGCUUCGGUGGCGCGAUAGCGCCAACGUCCUCAACCUCCAAUGCAUCCCACCACAUGAUGAUGCCUGAAGAGCCUUGGUUUUUUG
# Variants of: B1
# Experiment: polymerase ribozyme fitness, log enrichment relative to wild type (log ratio); higher = more active; in vitro selection for triplet polymerase activity
# Procedure, shortened: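 Genotype fitness is the logarithm of its enrichment divided by wild-type enrichment, using inverse-variance-weighted averages of replicates. That logarithm is base 2. Enrichment was measured by Illumina sequencing of input and output libraries from one triplicate in vitro selection round, with frozen incubation at −7 °C, on PCR-built, transcribed mutant libraries of each subunit of a heterodimeric triplet polymerase ribozyme, retaining genotypes with ≥10 input reads and ≥1 read per output.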
row,Variant,polymerase ribozyme fitness (log ratio)
1,GCCCAAUCUGCCCUCAGAGCUCGAGAACAUCUUCGGAUGCAGAGGAGGCAGGCUUCGGUGGCGCGAUAGCGACAACGUCCUCAACCUCCAAUGCAUCCCACCACAUGAUGAUGCCUGAAGAGCCUUGGUUUUUUG,-2.14
2,GCCCAAUCUGCCCUCAGAGCUCGAGAACAUCUUCGGUUGCAGAGGAGGCAGGCUUCGGUGGCGCGAUAGCGCCAACGGCCUCAACCUCCAAUGCAUCCCACCACAUGAUGAUGCCUGAAUAGCCUUGGUUUUUUG,-1.6
3,GCCCAAUCUGCCCUCAGAGCUCGAGAACAUCUUCGGAUGCAGAGGAGGCUGGCUUCGGAGGCGCGAUAGCGCCAACGUCCUCAACCUCCAAUGCAUCCCACCACAUGAUGCUGCCUGAAGCGCCUUGGUUUUAUC,-1.62
4,GCCCAAUCUGCUCUCAGAGCUCGAGAACAUCUUCGGAUGCAUAGGAGGCAGGCUUCGGUGGCGCGAUAGCUCCAACGUCCUCAUCCUCCAAUGAAUCCCACCACAUGAUGAUGCCUGAAGAGCCUUGGAUUUUUG,-4.83
5,GCCCAAUCUGCCCUCAGAGCUCGAGAACAUCUUCGGAUGCAGAGGAGGCAGGCUUCGGUGGCGCGAUAGCGCCAACGUCCUCAGCCUCCAAUGCAUCCUACCACAUGAUGAUGCCUGAAGAGCCUUGGUUUUUUG,-6.59
6,GCCCAAUCUGCCCUCAGAGCUCGAGAACAUCUUCGGAUGCAGAGGAGGCAGGCUUCGGUGGUGCGAUAGCGCCAACGUCCUCAACCUCCAAUGCAUCCCACCACAUGAUGAUGCCUGAAGAGCCUUGGUUUUUUG,-2.03
7,GCCCAAUCUGCCCUCAGAGCUCGAGAACAUCUUCGGAUGCAGAGGAGGGAGGCUUCGGUGGCCCGAUAGCGCCUUCGUCCUCAACCUCCAAUGCAUCCCACCACAUGAUGAUGCCUGAAGAGCAUUGGUUUUUUG,-3.35
8,GCCCAAUCUGCCCUCAGAGCUCGAGAACAUCUUCGGAUGCAGAGGAGGCAGGCUUCGGUGGCGCGAUAGCGCCAAUGUCCUCAACCUCCAAUGCAUCCCACCACAUGAUGAUGCCUGAAGAGCCUUGGUUUUUUG,-2.06
9,GCCUAAUCUGCCCUCAGAGCUCGAGAACAUCUUCGUAUGCAGAGGAGGCAGGCUUCGGUGGCGCGAUAGCGCAAACGUCCUCAACCUCCAAUGCAUCCCACCAUAUGAUGAUGCCUGAAGAGCCUUGGUUUUUUG,-2.65
10,GCCAAAUCUGCCCUCAGAGCUCGAGAACAUCUUCGGAUGCAGAGGAGGCAGGCUUCGGUGGCGCGAUAGCGCCAACGUCCUCAACCUCCAAUGCAUCCCACCACAUGGUGAUGCCUGAAGAGCCUUGGUUUUUUG,-3.25
11,GCCCGACCUGCCAUCAGAGCUCGAGAACAUCUUCGGAUGCAGAGGAGUCUGGCUUCGGUGGCGCGAUAGCGCCAACGUCCUCAACCUCCAACGCAUUCCACCACAUGAUGAUGCCUGAAGAGUCUUGGUUUUUUG,-4.24
12,GCCCAAUCUGCCCUCAGAGCUCGAGAACAUCUUCGGAUGCAGAGGAGGCAGGUUUCGGUGGCGCGAUAGCGCCAACGUCCGCAACCUCCAAUGCAUCCCACCACAUGAUGAUGCCUGAAGAGCCUUGGUUUUUUG,-4.15
13,GCCAAAUCUGCCCUCAGAGCUCGAGAACAUCUUCGGAUGCAGAGGAGGCAGGCUUCGGUGGCGCGAUAGCGCCAACGUCCUCAUCCUCCAAUGCAUCCCACCACAUGAUGAUGCGUGAAGAGCCUUGGUUUUUUG,-5.82
14,GCCCAAUCUGCCCUCAGAGCUCGAGAACAUCUUCGGAUGCAGAGGAGGCAGGCUUCGGUGGCGCGAUAGCGCCAACGUCCUCAACCUCCAAUGCAUCCCACAACAUGAUGAUGCCUGAAGAGCCUUGGUUUUUUG,-3.35
15,GCCAAAUCUGCCCUCAGAGCUCGAGAACAUCUUCGGAUGCAGAGGAGGCAGGCUUCGGUGGCGCGAUAGCGCCAACGUCCUCAACCUCCAAUGCAUCCCACCACAUGAUGAUGCCUGAAGAGCCUUGGUUUUUUG,-1.3
16,GCCCAAUCUGCCCUCAGAGCUCGAGAACAUCUUCGGAUGCAGAGGAGGCAGGCUUCGGUGGCGCGAUAGCGCCAACGUCCUCAAUCUCCAAUGCAUCCCACCACAUGAUGAUGCCUGAAGAGCCUUGGUUUUUUG,-3.37
17,GCCCAAUCUGCCCUCAGAGCUCGAGAACAUCUUCGGAUGCAGAGGAGGCAGGCUUCGGUGGCGCGAUAGCGCCAACGUACUCAACCUCCAAUGCAUCCCACCACAUGAUGAUGCCUGAAGAGCCUUGGCUUUUUG,-2.39
18,GCCCAAUCUGCCCUCAGAGCUCGAGAACAUGUUCGGAUGCAGAGGAGGCAGGCUUCGGUGGCGCGAUAGCGCCAACGUUCUCAACCUCCAAUGCAUCCCACCACAUGAUGAUGCCUUAAGAGCCUAGGUUUUUUG,-4.9
19,GCUCAAUCUGCCCUCAGAGCUCGAGAACAUCUUCGGAUGCAGAGGAGGCAGGCUUCGGCGGCGCGAUAGCGCCAACGUCCUCAACCUCCAAUGCAUCCCACCAAAUGAUGAUGCCUGAAGAGCCUUGGUUUUUUG,-4.21
20,GCCUAAUCUGCCUUCAGAGCUCGAGAACAUCUUCGGAUGCAGAGGAGGCAGGCUUCGGUGGCGCGAUAGCGCCAACGUCCUCAACCUCCAAUGCAUCCCACCACAUGAUGAUGUCUGAAGAGCGUUGGUUUUUUG,-1.63
21,GCCCAAUCUGCCCUCAGAGCUCGAGAACAUCUUCGGAUGGAGAGGAGGCAGGCUUCGGUGGCGCGAUAGCGCCAACGUCCUCAACCUCCAAUGCAUCCCACCACAUGAUGAUGCCUGAAGAGCCUUGGUUUUUUG,-2.5
